Data published in patent US7501552 (GENPHARM INTERNATIONAL, dated 2009).

What was measured:
Test in all cases: flow cytometry on peripheral blood lymphocytes
[1] = biological target: T1, chimpanzee CD4 on lymphocytes (chimpanzee, UniProt P16004 26-458)
T1 construct: whole, on cells; also called chimpanzee CD4 cells
Procedure: (§1) It is further desirable for some purposes that the animal be a non-human primate that expresses CD4 comprising a cross-reactive epitope with human CD4 such that it is recognized by the monoclonal antibody. […] Peripheral blood lymphocytes were isolated from whole blood of chimpanzee, rhesus, and cynomolgus monkeys. […] The stained cells were then analyzed by flow cytometry to determine if each of the human monoclonal antibodies bound to endogenous CD4 on the surface of lymphocytes from each of these three non-human primates.

[2] = biological target: T2, rhesus monkey CD4 on lymphocytes (rhesus monkey, UniProt P16003 26-458)
T2 construct: whole, on cells; also called rhesus CD4 cells
T2 sequence (P16003 26-458): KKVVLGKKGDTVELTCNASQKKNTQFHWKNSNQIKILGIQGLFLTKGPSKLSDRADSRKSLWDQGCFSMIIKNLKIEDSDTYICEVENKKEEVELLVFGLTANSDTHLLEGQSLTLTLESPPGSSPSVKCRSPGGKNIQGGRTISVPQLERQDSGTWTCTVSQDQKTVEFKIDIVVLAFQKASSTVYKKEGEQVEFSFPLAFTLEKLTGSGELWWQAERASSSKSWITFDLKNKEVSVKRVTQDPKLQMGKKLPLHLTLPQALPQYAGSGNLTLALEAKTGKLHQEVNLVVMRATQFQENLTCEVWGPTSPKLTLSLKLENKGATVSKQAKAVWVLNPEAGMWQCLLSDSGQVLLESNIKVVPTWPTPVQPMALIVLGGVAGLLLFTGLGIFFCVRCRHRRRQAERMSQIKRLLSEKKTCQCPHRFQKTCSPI
Procedure: as §1

[3] = biological target: T3, cynomolgus monkey CD4 on lymphocytes (cynomolgus monkey, UniProt P79185 26-458)
T3 construct: whole, on cells; also called cynomolgus CD4 cells
T3 sequence (P79185 26-458): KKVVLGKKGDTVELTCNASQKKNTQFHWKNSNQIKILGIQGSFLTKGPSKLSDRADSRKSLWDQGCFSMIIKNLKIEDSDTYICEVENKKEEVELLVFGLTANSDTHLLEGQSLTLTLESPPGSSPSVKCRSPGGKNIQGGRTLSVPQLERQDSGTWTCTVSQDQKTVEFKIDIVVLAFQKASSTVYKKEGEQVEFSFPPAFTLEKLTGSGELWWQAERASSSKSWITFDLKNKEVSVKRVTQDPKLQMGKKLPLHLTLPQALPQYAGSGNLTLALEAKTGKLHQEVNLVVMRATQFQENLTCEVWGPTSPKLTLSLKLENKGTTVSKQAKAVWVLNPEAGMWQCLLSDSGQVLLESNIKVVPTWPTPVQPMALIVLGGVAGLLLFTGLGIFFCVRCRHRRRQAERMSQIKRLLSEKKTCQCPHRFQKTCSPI
Procedure: as §1

Measured: binding result

T1 sequence (P16004 26-458): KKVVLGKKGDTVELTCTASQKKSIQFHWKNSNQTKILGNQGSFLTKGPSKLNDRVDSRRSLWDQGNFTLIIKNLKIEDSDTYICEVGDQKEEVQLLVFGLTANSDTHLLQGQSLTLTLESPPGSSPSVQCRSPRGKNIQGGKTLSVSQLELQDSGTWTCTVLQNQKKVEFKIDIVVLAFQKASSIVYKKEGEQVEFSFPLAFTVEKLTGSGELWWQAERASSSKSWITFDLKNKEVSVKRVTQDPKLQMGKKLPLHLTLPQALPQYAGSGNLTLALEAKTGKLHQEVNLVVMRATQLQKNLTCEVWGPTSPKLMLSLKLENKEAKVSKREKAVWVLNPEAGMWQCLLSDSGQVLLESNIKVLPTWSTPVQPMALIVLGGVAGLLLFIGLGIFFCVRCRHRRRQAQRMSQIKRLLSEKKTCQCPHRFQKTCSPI

B1: 4D1 (antibody, V domains shown)
VH: EVQLVQSGAEVKKPGESLKISCKGSGYSFTGYWIGWVRQMPGKGLEWMGIIYPGDSDTTYSPSFQGQVTISADKSISTAYLQWSSLKASDTAMYYCARDQLGLFDYWGQGTLVTVSS
VL: DIQMTQSPSSLSASVGDRVTITCRASQGISSWLAWYQQKPEKAPKSLIYSASSLQSGVPSRFSGSGSGTDFTLTISSLQPEDFATYYCQQYDSYPYTFGQGTKLEIK
notes: human IgG1 kappa from hybridoma; h.c; VH5-51, DHQ52, JH4; VkL15, Jk2; also called 4D1.4
binds: [1] | [2] | [3]
